Data taken from paper PMC8626469, “Helicobacter pylori FabX contains a [4Fe-4S] cluster essential for unsaturated fatty acid synthesis” (Nature Communications, 2021).

Experiments:
[1] = substrate: CCCCCCCCCC(=O)SCCNC(=O)CCNC(=O)[C@H](O)C(C)(C)COP(=O)(O)OP(=O)(O)OC[C@H]1O[C@@H](n2cnc3c(N)ncnc32)[C@H](O)[C@@H]1OP(=O)(O)O; assay: purified protein; assay type: biochemical, Helicobacter pylori; conditions: pH 7.2, 50 mM sodium phosphate, 50 mM NaCl, 25-37 °C, 1.25 uM FabX, 5 uM E. coli FabI, 125 uM NADH, dehydrogenation of substrate analogue of decanoyl-ACP, 30-250 uM
[2] = target: Helicobacter pylori FabX R164A (H. pylori)
[3] = target: Helicobacter pylori FabX (H. pylori); assay: SEC-MALS; 10 mg/ml FabX, holo-ACP or FabX-holo-ACP complex on a WTC-030S5 column; 20 mM HEPES pH 8.0, 50 mM NaCl, 10 mM TCEP

B1: FabX (Helicobacter pylori) (protein)
chain: MVSTLKPLKIGKHTIKFPIFQGGMGVGISWDELAGNVAKEGALGVISAVGTGYYKNMRFVERIVAKKPFEALNFYSKKALNEIFANARKICGNNPLGANILYAINDYGRVLRDSCEAGANIIITGAGLPTNMPEFAKDFSDVALIPIISSAKALKILCKRWSDRYKRIPDAFIVEGPLSGGHQGFKYEDCFKEEFRLENLVPKVVEASKEWGNIPIIAAGGIWDRKDIDTMLSLGASGVQMATRFLGTKECDAKVYADLLPTLKKEDILLIKSPVGYPARAINTGVIKRIEEGNAPKIACVSNCVAPCNRGEEAKKVGYCIADGLGRSYLGNREEGLYFTGANGYRVDKIISVHELIKELTEG
notes: full length, 363 residues; expressed in E. coli BL21(DE3) Rosetta; monomer in the asymmetric unit; holds FMN and a [4Fe-4S] cluster
**Q.** Which results are given for B1?
**A.** Km [1]: 125.40 µM; kcat [1]: 0.0186 s⁻¹

B2: Helicobacter pylori decanoyl-acyl carrier protein (natural protein)
chain: MALFEDIQAVIAEQLNVDAVQVTPEAEFVKDLGADSLDVVELIMALEEKFGVEIPDEQAEKIINVGDVVKYIEDNKLA
**Q.** Which in vitro dehydrogenation activity with decanoyl-ACP (FabX-FabI coupled assay), fold reduction against wild type FabX [2] does the source give for B2 here?
**A.** 80 fold

B3: Helicobacter pylori holo-acyl carrier protein (natural protein)
chain: B2 chain
modifications: phosphopantetheine group (PPant) on Ser36
**Q.** B3 was tested. Which stoichiometry N [3] did it give?
**A.** 1
